These results are taken from patent publication US11529424B2, “Synthetic bioconjugates” (Symic Holdings, Inc., priority 2017, dated 2022).

Usually Kd stands for a measure of binding affinity in units of concentration. Higher therefore signals weaker binding. As usually defined, the EC50 (read off the curve) is the concentration needed to bring the measured effect to its halfway point. Read a low EC50 (read off the curve) as an effect from little substance. By EC50 is commonly meant the concentration that produces a half-maximal response. Read a high EC50 as a need for much substance.

Several values for one entry are separate records, joined by “and”; a condition that tells them apart may be missing. Equal entries are not always repeated. Entries after “also recorded” stand apart in the source; their conditions may differ. Where two headings read alike, the source gives them in different places. Ends that are not written are not given here. * marks the point of attachment. NHNH2 = NN*

One data set concerns the target collagen. Kind of data set: Collagen-binding plate assay. Conditions: for collagen binding EC50: compared to the EC50 for Compound 4. As for the experimental part:
The following method is used to assess the binding affinity of bioconjugates disclosed herein for collagen.
Collagen-binding of bioconjugate variants is compared by a plate-assay, in which collagen is coated on 96-well plates. Collagen is coated on high-bind plates at 50 μg/mL in 0.02 N acetic acid for 1 hour at room temperature. Unbound collagen is rinsed with 1×PBS pH 7.4. Plates are then blocked in 1% milk in 1×PBS solution for 1 hour at room temperature.
Bioconjugate variants containing biotinlyated peptides are dissolved to a final concentration of 1 mg/mL in 1% milk in 1×PBS pH 7.4. From this solution, a 10× serial dilution is performed. Molecules are then incubated on the blocked collagen-coated plates and incubated for 15 minutes at room temperature. Plates are then rinsed 3 times with 1×PBS in 1% BSA and 0.2% Tween20.
Bound molecules are detected by streptavidin-HRP, which was diluted 1:500 in 1× PBS with 1% BSA and 0.2% Tween20 and incubated 200 μL/well for 20 minutes at room temperature. Streptavidin solution is rinsed from the plates 3 times with 1×PBS with 0.2% Tween20. TMB Substrate solution is then added to each well 100 μL/well for 15 minutes at room temperature, and the color evolution was stopped with 100 μL sulfuric acid solution (0.16 M). Absorbance in the well is then measured at 450 nm and binding affinity plotted in a dose-response by absorbance vs. concentration.
This method was used to compare collagen binding affinity of various collagen-binding bioconjugates by comparing EC50 values. More specifically, the EC50 values for each bioconjugate was compared to the EC50 for Compound 4.

The subject of data set [1] is mouse model of Non-Alcoholic Steatohepatitis (NASH). Kind of data set: Non-Alcoholic Steatohepatitis (NASH) mouse model, liver collagen by Sirius Red. It counts as in vivo, C57BL/6 mice. Conditions: week 5 to week 9; Compound 10 3×/week intravenous, Telmisartan daily oral; compared to the vehicle treated group. As for the experimental part: The ability of the compounds to affect liver fibrosis was tested in a mouse model of Non-Alcoholic Steatohepatitis (NASH). C57BL/6 mice received a single subcutaneous injection of 200 μg streptozotocin after birth. Beginning at 4 weeks of age, animals were fed a high fat diet. […] A separate group of animals received daily oral administration of Telmisartan during the same period Animals were sacrificed at 9 weeks of age and the livers were collected for histological and biochemical analysis. Histological analysis of the livers for collagen content was performed using Sirius Red staining.

The next data set addresses Collagen Type I (Homo sapiens, UniProt P02452+P08123). Kind of data set: Collagen Binding Assay 2. Conditions: with GSGSGSRR spacer versus binding domain without spacer and spacer alone, FIG. 18 and 19. As for the experimental part: GQLYKSILYGSGSGSRR (SEQ ID NO: 6) (Compound 10) was evaluated for binding affinity against the GQLYKSILYGSG (SEQ ID NO: 59) (Peptide X) binding domain without spacer and against the spacer sequence alone, GSGSGSRR (SEQ ID NO: 4) (Spacer A), results shown in FIG. 18. […] WREPSFSALS (SEQ ID NO: 8), also known as vWF-2× due to its binding to the von Willebran binding site on collagen, was evaluated for binding affinity with and without the GSGSGSRR (SEQ ID NO: 4) spacer.
50 μg/ml of Collagen Type I was adsorbed onto high bind plates by incubating overnight. Plates were then washed with PBS and blocked using 1% Non-fat milk in PBS for 1 hour. Molecule dilutions were prepared in 1% BSA in PBS and then incubated for 1 hour at 25° C. Plates were then washed with PBS containing 0.05% Tween 20. A 1:500 dilution of Streptavidin-HRP in 1% BSA PBS was prepared and added to the plates for 20 minutes. Plates were then washed with PBS and TMB solution was added for 10 minutes for color development. The color development was stopped using 0.16 M sulfuric acid and absorbance at […] was measured using a plate reader. Compound 10 was used as a reference standard for all EC50 results.

In data set [2] the test system is platelet binding to Type I fibrillar collagen. Kind of data set: Platelet aggregation: platelet binding to collagen under flow. It counts as cell-based. Conditions: 2 mg/mL on collagen-coated slides, human whole blood, sheer rate 1000 s−1, 10 minutes; compared to Compound 1. As for the experimental part:
Type I fibrillar collagen was adsorbed to Ibidi μ-slides by overnight incubation at 2-8° C. The Ibidi μ-slides were rinsed with Phosphate Buffer Saline (PBS), and then blocked with 1% BSA in 1×PBS. Compound 10 (shown in FIG. 12B) and Compound 1 at 2 mg/mL (shown in 12A) were applied to Ibidi μ-slides and left to incubate. After 1 hour excess conjugates were rinsed away with 1×PBS. Freshly drawn human whole blood was prestained with Calcein AM (Live Fluorescent cell marker). Blood was pumped across the channels at a sheer rate of 1000 s−1 using a syringe pump for 10 minutes. As blood flows across the Ibidi μ-Slides, Fluorescent microscope was used to take images of aggregated fluorescently labeled platelets.

In data set [3] the target is collagen (coated on 96-well plates, Example 2). Kind of data set: collagen-coated 96-well plate, biotin-labelled bioconjugate, streptavidin-HRP/TMB, absorbance at 450 nm (Example 2); Kd unit inferred, the concentration axis is in ug/ml.
Data set [4] shares this target. Kind of data set: collagen-coated 96-well plate, biotin-labelled bioconjugate, streptavidin-HRP/TMB, absorbance at 450 nm (Example 2).
The target is the same in data set [5]. The data set is described as above. This is another data set of the same source.
Data set [6] shares this target. Kind of data set: collagen-coated 96-well plate, biotin-labelled bioconjugate, streptavidin-HRP/TMB, absorbance at 450 nm (Example 2), the concentration axis is in ug/ml.

Collagen Type I, sequence (P02452 162-1218 limits assumed): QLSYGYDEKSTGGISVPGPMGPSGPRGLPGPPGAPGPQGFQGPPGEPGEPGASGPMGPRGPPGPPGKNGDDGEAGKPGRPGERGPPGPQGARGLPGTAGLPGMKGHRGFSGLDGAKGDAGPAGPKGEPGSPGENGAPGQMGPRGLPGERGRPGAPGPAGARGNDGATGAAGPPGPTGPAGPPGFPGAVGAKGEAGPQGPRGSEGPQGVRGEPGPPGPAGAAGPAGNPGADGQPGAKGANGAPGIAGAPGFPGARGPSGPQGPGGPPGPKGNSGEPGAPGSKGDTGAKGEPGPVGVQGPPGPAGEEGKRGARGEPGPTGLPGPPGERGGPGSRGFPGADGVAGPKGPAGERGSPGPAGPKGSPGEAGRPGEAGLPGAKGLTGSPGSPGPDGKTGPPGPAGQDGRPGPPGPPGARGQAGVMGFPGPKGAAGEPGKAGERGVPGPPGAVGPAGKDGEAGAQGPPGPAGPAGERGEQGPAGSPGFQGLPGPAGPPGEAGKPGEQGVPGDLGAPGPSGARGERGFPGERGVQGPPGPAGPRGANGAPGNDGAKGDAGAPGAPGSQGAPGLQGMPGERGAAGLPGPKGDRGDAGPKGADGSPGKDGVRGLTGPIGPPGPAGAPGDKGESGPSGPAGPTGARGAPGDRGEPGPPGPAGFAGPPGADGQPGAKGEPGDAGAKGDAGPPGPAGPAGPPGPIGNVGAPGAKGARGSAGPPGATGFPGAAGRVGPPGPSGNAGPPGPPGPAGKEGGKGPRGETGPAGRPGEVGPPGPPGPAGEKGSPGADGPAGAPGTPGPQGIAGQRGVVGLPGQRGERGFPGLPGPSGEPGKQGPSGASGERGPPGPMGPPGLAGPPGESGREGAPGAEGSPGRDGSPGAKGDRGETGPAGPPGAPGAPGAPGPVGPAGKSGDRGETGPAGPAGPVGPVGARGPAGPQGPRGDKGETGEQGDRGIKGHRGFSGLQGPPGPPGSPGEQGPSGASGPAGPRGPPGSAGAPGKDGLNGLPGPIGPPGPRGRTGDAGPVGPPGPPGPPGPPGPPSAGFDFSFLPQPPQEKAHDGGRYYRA
Collagen Type I, sequence (P08123 80-1119 limits assumed): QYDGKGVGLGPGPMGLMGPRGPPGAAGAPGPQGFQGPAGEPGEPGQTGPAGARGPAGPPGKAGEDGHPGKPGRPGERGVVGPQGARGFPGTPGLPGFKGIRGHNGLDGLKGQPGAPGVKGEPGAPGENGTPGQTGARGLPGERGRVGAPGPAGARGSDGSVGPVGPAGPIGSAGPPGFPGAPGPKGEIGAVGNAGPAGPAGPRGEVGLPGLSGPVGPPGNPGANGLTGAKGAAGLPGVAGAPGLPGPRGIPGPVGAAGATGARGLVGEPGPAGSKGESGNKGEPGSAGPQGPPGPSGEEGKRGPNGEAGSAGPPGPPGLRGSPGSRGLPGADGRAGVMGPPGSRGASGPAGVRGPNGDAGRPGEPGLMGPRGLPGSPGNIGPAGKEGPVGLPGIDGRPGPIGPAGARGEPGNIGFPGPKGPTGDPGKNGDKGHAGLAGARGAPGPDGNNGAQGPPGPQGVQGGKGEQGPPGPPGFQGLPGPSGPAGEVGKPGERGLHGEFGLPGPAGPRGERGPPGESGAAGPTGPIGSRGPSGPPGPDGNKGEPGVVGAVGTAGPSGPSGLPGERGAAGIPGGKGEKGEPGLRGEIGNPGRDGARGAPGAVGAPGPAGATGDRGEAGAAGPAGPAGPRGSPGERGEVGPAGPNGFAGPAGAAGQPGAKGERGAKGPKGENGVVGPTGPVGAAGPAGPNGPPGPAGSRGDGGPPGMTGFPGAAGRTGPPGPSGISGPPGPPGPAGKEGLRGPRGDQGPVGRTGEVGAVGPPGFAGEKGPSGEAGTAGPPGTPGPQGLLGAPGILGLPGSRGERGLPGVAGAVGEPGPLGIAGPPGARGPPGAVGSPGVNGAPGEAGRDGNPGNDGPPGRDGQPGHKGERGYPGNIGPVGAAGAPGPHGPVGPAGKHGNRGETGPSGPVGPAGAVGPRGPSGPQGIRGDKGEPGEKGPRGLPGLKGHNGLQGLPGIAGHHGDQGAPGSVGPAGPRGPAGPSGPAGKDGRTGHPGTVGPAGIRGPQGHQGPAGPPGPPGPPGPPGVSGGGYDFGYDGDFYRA

For the molecule “Compound 8: heparin bioconjugate with peptide GQLYKSILYGSRGSG-NHNH2 (Peptide 8), 1:8 glycan to peptide (also: heparin bioconjugate, 1:8 glycan to peptide, attachment site not given here)”, the “collagen binding EC50” value on collagen is reported as “increases EC50; also recorded: slightly increases EC50”.

`CCCc1nc2c(C)cc(-c3nc4ccccc4n3C)cc2n1Cc1ccc(-c2ccccc2C(=O)O)cc1` [Telmisartan, reference compound]: the “levels of collagen in the liver (Sirius Red staining)” value in data set [1] is recorded as “decreased levels of collagen in the liver”.

Take “Compound 4: heparin bioconjugate with peptide GQLYKSILYGSGRRGSG-NHNH2 (Peptide 4), 1:8 glycan to peptide (also: heparin bioconjugate, 1:8 glycan to peptide, attachment site not given here)”: the “collagen binding affinity (Kd)” value on collagen (compared to Compound 5 and Compound 3, FIG. 11) was “significant increase in collagen binding affinity (lower Kd)”. Take “WREPSFSALSGSGSGSRR [WREPSFSALSGSGSGSRR (SEQ ID NO: 110)]”: the collagen binding affinity result with Collagen Type I is recorded as “increase in binding affinity”. Regarding “Compound 10: heparin bioconjugate with peptide GQLYKSILYGSGSGSRR-NHNH2 (Peptide 10), 1:8 glycan to peptide (also: heparin bioconjugate, 1:8 glycan to peptide, attachment site not given here)”, the “collagen binding EC50” value on collagen was “decreases the EC50”. The “platelet binding to Type I fibrillar collagen” value in data set [2] is “inhibits platelet binding to Type I fibrillar collagen”. Moreover, the “levels of collagen in the liver (Sirius Red staining)” value in data set [1] is “decreased levels of collagen in the liver”. Also, the collagen binding affinity entry in the data set with Collagen Type I is given as “greater binding affinity than the binding domain or the spacer in isolation”.

B1: Compound 20 (peptide)
peptide conjugated to heparin: GSGGQLYKSILY
modifications: not fully specified (N-terminus); also: part of the peptides biotin-labelled, heparin backbone average 16 kDa
Turning to B1, in data set [3], the Kd is 35.1 µg/mL.

B2: Compound 12 (heparin bioconjugate of …-NHNH2) (peptide)
peptide: GQLYKSILYGSGRRRGSG
modifications: not fully specified; C-terminal hydrazide (-NHNH-) bonded to a carboxyl of heparin; part of the peptides biotin-labelled
In data set [4], B2 had an EC50 (read off the curve) of 30 µg/mL.

B3: Compound 8 (heparin bioconjugate of …-NHNH2) (peptide)
peptide: GQLYKSILYGSRGSG
modifications: not fully specified; C-terminal hydrazide (-NHNH-) bonded to a carboxyl of heparin; part of the peptides biotin-labelled
Consider B3, for which the EC50 (read off the curve) in data set [5] was 60 µg/mL. Further, in data set [6], the EC50 stood at 47.1 µg/mL.

B4: Compound 19 (heparin bioconjugate of (…)2-KRRGSG-NHNH2) (peptide)
peptide 1: RVMHGLHLGDDEGSG
peptide 2: KRRGSG
modifications: not fully specified (C-terminus); printed as (RVMHGLHLGDDEGSG)2-KRRGS; also: two copies of chain 1 bonded to the N-terminal branching lysine of chain 2, about 3 branched peptides per heparin (16 kDa)
In turn, B4 gave an EC50 (read off the curve) in data set [4] of 100 µg/mL. Still for that read-out and setting: in the case of GQLYKSILYGSGKKGSG (also: conjugated to heparin) [Compound 14 (heparin bioconjugate of …)] it was 60 µg/mL.

B5: Compound 3 (heparin bioconjugate of …-NHNH2) (peptide)
peptide: GQLYKSILYGSG
modifications: not fully specified; C-terminal hydrazide (-NHNH-) bonded to a carboxyl of heparin; part of the peptides biotin-labelled
Regarding B5, in data set [3], the Kd was 112 µg/mL.

B6: Compound 9 (heparin bioconjugate of …-NHNH2) (peptide)
peptide: GQLYKSILYRRGSGSGS
modifications: not fully specified; C-terminal hydrazide (-NHNH-) bonded to a carboxyl of heparin; part of the peptides biotin-labelled
With B6, in data set [4], the EC50 (read off the curve) was 50 µg/mL.

B7: Compound 10 (heparin bioconjugate of …-NHNH2) (peptide)
peptide: GQLYKSILYGSGSGSRR
modifications: not fully specified; C-terminal hydrazide (-NHNH-) bonded to a carboxyl of heparin; part of the peptides biotin-labelled
In the case of B7, the EC50 (read off the curve) in data set [4] was 20 µg/mL. Also, in data set [6], the EC50 stood at 15 µg/mL.

B8: Compound 7 (peptide)
peptide conjugated to heparin: GQLYKSILYGRSGRGSG
modifications: not fully specified; C-terminal hydrazide (-NHNH2) coupled to heparin; part of the peptides biotin-labelled
B8: in data set [6], the EC50 is 44.2 µg/mL.

B9: Compound 4 (heparin bioconjugate of …-NHNH2) (peptide)
peptide: GQLYKSILYGSGRRGSG
modifications: not fully specified; C-terminal hydrazide (-NHNH-) bonded to a carboxyl of heparin; part of the peptides biotin-labelled
Turning to B9, the EC50 (read off the curve) in data set [4] came to 50 µg/mL; in data set [5], 40 µg/mL. Further, in data set [6], the EC50 was 40.4 µg/mL and 32.1 µg/mL. The Kd in data set [3] was 42.5 µg/mL.

B10: Compound 11 (heparin bioconjugate of …-NHNH2) (peptide)
peptide: GQLYKSILYGSRRGS
modifications: not fully specified; C-terminal hydrazide (-NHNH-) bonded to a carboxyl of heparin; part of the peptides biotin-labelled
B10 displayed an EC50 (read off the curve) in data set [5] of 50 µg/mL.

B11: Compound 5 (heparin bioconjugate of …-NHNH2) (peptide)
peptide: GQLYKSILYGSGSGSGS
modifications: not fully specified; C-terminal hydrazide (-NHNH-) bonded to a carboxyl of heparin; part of the peptides biotin-labelled
For B11, the Kd in data set [3] was 103 µg/mL and 113 µg/mL.

B12: Compound 6 (peptide)
peptide conjugated to heparin: GQLYKSILYGSRGRGSG
modifications: not fully specified; C-terminal hydrazide (-NHNH2) coupled to heparin; part of the peptides biotin-labelled
B12 showed an EC50 in data set [6] of 63.3 µg/mL.

B13: Compound 13 (heparin bioconjugate of …-NHNH2) (peptide)
peptide: GQLYKSILYGSGRGSGSGSG
modifications: not fully specified (C-terminus); printed as GQLYKSILYGSGRGSGSGSG-; also: about 5 peptides per heparin (16 kDa), part of the peptides biotin-labelled
With B13, the EC50 (read off the curve) in data set [4] came to 60 µg/mL.
